Experimental data from patent US20140274782A1, “AFFINITY REAGENTS AND METHODS FOR DETECTION, PURIFICATION, AND PROTEOMIC ANALYSIS OF METHYLATED PROTEINS” (The Board of Trustees of the Leland Stanford Junior …, priority 2013, published 2014).

B1: UBTF (protein, UniProt P17480 1-764, looked up)
Nucleolar transcription …: MNGEADCPTDLEMAAPKGQDRWSQEDMLTLLECMKNNLPSNDSSKFKTTESHMDWEKVAFKDFSGDMCKLKWVEISNEVRKFRTLTELILDAQEHVKNPYKGKKLKKHPDFPKKPLTPYFRFFMEKRAKYAKLHPEMSNLDLTKILSKKYKELPEKKKMKYIQDFQREKQEFERNLARFREDHPDLIQNAKKSDIPEKPKTPQQLWYTHEKKVYLKVRPDATTKEVKDSLGKQWSQLSDKKRLKWIHKALEQRKEYEEIMRDYIQKHPELNISEEGITKSTLTKAERQLKDKFDGRPTKPPPNSYSLYCAELMANMKDVPSTERMVLCSQQWKLLSQKEKDAYHKKCDQKKKDYEVELLRFLESLPEEEQQRVLGEEKMLNINKKQATSPASKKPAQEGGKGGSEKPKRPVSAMFIFSEEKRRQLQEERPELSESELTRLLARMWNDLSEKKKAKYKAREAALKAQSERKPGGEREERGKLPESPKRAEEIWQQSVIGDYLARFKNDRVKALKAMEMTWNNMEKKEKLMWIKKAAEDQKRYERELSEMRAPPAATNSSKKMKFQGEPKKPPMNGYQKFSQELLSNGELNHLPLKERMVEIGSRWQRISQSQKEHYKKLAEEQQKQYKVHLDLWVKSLSPQDRAAYKEYISNKRKSMTKLRGPNPKSSRTTLQSKSESEEDDEEDEDDEDEDEEEEDDENGDSSEDGGDSSESSSEDESEDGDENEEDDEDEDDDEDDDEDEDNESEGSSSSSSSSGDSSDSDSN
B2: UBAP2L (protein, UniProt Q14157 1-1087, looked up)
Ubiquitin-associated protein …: MMTSVGTNRARGNWEQPQNQNQTQHKQRPQATAEQIRLAQMISDHNDADFEEKVKQLIDITGKNQDECVIALHDCNGDVNRAINVLLEGNPDTHSWEMVGKKKGVSGQKDGGQTESNEEGKENRDRDRDYSRRRGGPPRRGRGASRGREFRGQENGLDGTKSGGPSGRGTERGRRGRGRGRGGSGRRGGRFSAQGMGTFNPADYAEPANTDDNYGNSSGNTWNNTGHFEPDDGTSAWRTATEEWGTEDWNEDLSETKIFTASNVSSVPLPAENVTITAGQRIDLAVLLGKTPSTMENDSSNLDPSQAPSLAQPLVFSNSKQTAISQPASGNTFSHHSMVSMLGKGFGDVGEAKGGSTTGSQFLEQFKTAQALAQLAAQHSQSGSTTTSSWDMGSTTQSPSLVQYDLKNPSDSAVHSPFTKRQAFTPSSTMMEVFLQEKSPAVATSTAAPPPPSSPLPSKSTSAPQMSPGSSDNQSSSPQPAQQKLKQQKKKASLTSKIPALAVEMPGSADISGLNLQFGALQFGSEPVLSDYESTPTTSASSSQAPSSLYTSTASESSSTISSNQSQESGYQSGPIQSTTYTSQNNAQGPLYEQRSTQTRRYPSSISSSPQKDLTQAKNGFSSVQATQLQTTQSVEGATGSAVKSDSPSTSSIPPLNETVSAASLLTTTNQHSSSLGGLSHSEEIPNTTTTQHSSTLSTQQNTLSSSTSSGRTSTSTLLHTSVESEANLHSSSSTFSTTSSTVSAPPPVVSVSSSLNSGSSLGLSLGSNSTVTASTRSSVATTSGKAPPNLPPGVPPLLPNPYIMAPGLLHAYPPQVYGYDDLQMLQTRFPLDYYSIPFPTPTTPLTGRDGSLASNPYSGDLTKFGRGDASSPAPATTLAQPQQNQTQTHHTTQQTFLNPALPPGYSYTSLPYYTGVPGLPSTFQYGPAVFPVAPTSSKQHGVNVSVNASATPFQQPSGYGSHGYNTGVSVTSSNTGVPDISGSVYSKTQQSFEKQGFHSGTPAASFNLPSALGSGGPINPATAAAYPPAPFMHILTPHQQPHSQILHHHLQQDGQTGSGQRSQTSSIPQKPQTNKSAYNSYSWGAN
B3: MAP4 (protein, UniProt P27816 2-1152, looked up)
Microtubule-associated …: ADLSLADALTEPSPDIEGEIKRDFIATLEAEAFDDVVGETVGKTDYIPLLDVDEKTGNSESKKKPCSETSQIEDTPSSKPTLLANGGHGVEGSDTTGSPTEFLEEKMAYQEYPNSQNWPEDTNFCFQPEQVVDPIQTDPFKMYHDDDLADLVFPSSATADTSIFAGQNDPLKDSYGMSPCNTAVVPQGWSVEALNSPHSESFVSPEAVAEPPQPTAVPLELAKEIEMASEERPPAQALEIMMGLKTTDMAPSKETEMALAKDMALATKTEVALAKDMESPTKLDVTLAKDMQPSMESDMALVKDMELPTEKEVALVKDVRWPTETDVSSAKNVVLPTETEVAPAKDVTLLKETERASPIKMDLAPSKDMGPPKENKKETERASPIKMDLAPSKDMGPPKENKIVPAKDLVLLSEIEVAQANDIISSTEISSAEKVALSSETEVALARDMTLPPETNVILTKDKALPLEAEVAPVKDMAQLPETEIAPAKDVAPSTVKEVGLLKDMSPLSETEMALGKDVTPPPETEVVLIKNVCLPPEMEVALTEDQVPALKTEAPLAKDGVLTLANNVTPAKDVPPLSETEATPVPIKDMEIAQTQKGISEDSHLESLQDVGQSAAPTFMISPETVTGTGKKCSLPAEEDSVLEKLGERKPCNSQPSELSSETSGIARPEEGRPVVSGTGNDITTPPNKELPPSPEKKTKPLATTQPAKTSTSKAKTQPTSLPKQPAPTTIGGLNKKPMSLASGLVPAAPPKRPAVASARPSILPSKDVKPKPIADAKAPEKRASPSKPASAPASRSGSKSTQTVAKTTTAAAVASTGPSSRSPSTLLPKKPTAIKTEGKPAEVKKMTAKSVPADLSRPKSTSTSSMKKTTTLSGTAPAAGVVPSRVKATPMPSRPSTTPFIDKKPTSAKPSSTTPRLSRLATNTSAPDLKNVRSKVGSTENIKHQPGGGRAKVEKKTEAAATTRKPESNAVTKTAGPIASAQKQPAGKVQIVSKKVSYSHIQSKCGSKDNIKHVPGGGNVQIQNKKVDISKVSSKCGSKANIKHKPGGGDVKIESQKLNFKEKAQAKVGSLDNVGHLPAGGAVKTEGGGSEAPLCPGPPAGEEPAISEAAPEAGAPTSASGLNGHPTLSGGGDQREAQTLDSQIQETSI

Molecular target: T1, G9a and GLP (Homo sapiens, UniProt Q96KQ7+Q9H9B1)
T1 sequence (Q96KQ7 2-1210 limits assumed): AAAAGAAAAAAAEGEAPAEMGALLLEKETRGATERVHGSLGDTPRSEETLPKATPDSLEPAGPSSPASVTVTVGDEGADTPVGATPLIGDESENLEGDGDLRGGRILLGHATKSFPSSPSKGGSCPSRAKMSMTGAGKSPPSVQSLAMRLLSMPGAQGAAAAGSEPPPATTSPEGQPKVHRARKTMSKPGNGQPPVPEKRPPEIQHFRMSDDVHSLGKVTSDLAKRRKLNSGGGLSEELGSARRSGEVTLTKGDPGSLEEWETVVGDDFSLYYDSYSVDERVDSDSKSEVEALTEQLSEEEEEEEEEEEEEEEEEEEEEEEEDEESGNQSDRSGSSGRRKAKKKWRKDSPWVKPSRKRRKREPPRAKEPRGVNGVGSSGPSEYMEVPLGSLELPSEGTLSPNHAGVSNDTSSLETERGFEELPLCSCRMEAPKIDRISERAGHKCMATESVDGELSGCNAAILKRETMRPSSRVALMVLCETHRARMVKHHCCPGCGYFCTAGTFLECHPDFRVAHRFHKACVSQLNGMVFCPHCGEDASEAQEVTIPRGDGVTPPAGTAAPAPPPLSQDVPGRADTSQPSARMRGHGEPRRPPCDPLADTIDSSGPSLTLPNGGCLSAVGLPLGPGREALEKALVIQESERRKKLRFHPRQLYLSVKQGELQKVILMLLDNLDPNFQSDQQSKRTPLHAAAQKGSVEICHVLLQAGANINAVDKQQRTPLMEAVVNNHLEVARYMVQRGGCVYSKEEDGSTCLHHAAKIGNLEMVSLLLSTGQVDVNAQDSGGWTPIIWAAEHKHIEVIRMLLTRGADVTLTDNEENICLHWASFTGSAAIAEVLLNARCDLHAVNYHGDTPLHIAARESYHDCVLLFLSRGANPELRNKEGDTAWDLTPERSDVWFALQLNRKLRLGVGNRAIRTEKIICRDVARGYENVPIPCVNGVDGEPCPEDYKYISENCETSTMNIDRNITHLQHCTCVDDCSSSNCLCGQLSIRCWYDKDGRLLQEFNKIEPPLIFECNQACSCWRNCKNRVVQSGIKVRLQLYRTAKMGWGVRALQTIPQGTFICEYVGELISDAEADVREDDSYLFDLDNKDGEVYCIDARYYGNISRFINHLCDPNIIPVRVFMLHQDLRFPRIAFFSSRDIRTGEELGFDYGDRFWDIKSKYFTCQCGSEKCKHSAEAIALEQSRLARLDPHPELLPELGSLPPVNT
T1 sequence (Q9H9B1 2-1298 limits assumed): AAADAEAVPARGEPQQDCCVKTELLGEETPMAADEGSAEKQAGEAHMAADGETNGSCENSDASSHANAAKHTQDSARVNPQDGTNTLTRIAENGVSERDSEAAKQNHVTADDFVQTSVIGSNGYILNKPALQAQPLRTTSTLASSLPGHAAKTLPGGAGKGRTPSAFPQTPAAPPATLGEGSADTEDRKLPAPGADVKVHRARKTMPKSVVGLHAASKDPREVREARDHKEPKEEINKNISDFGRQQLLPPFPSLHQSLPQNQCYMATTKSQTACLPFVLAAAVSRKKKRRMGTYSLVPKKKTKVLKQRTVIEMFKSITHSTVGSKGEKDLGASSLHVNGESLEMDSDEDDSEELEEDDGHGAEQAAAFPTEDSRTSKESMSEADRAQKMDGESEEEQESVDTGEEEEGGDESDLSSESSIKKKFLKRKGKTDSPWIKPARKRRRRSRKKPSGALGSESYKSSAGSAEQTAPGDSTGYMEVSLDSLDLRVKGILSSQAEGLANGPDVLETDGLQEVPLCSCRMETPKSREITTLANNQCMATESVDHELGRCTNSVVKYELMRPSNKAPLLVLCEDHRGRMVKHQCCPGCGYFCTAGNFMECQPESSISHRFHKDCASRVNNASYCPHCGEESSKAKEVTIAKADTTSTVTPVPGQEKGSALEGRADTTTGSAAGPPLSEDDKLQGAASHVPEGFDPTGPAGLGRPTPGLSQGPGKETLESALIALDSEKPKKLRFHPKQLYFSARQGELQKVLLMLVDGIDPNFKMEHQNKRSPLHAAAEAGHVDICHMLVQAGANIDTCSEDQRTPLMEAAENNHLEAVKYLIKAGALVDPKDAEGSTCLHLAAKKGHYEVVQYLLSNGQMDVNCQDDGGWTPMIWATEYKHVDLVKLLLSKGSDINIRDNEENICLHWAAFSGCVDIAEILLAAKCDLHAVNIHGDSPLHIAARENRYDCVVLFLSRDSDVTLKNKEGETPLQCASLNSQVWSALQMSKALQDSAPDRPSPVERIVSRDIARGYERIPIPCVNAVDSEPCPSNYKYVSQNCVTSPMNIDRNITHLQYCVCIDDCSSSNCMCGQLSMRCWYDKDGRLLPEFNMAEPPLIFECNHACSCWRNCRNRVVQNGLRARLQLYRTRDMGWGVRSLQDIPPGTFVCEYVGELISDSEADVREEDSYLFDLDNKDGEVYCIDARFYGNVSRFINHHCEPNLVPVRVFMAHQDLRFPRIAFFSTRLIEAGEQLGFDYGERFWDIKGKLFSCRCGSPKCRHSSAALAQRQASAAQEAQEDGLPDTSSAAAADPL
Experiment: Triple SILAC pull-down after UNC0638 treatment of 293T cells, DMSO/UNC0638 ratio of protein captured by 3×MBT;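 further: mass spectrometry (Q-Exactive) SILAC quantitation, DMSO/UNC0638 ratio computed after subtracting 3×MBTD355N mutant pull-down background, only proteins with at least twofold 3×MBT over mutant signal considered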
Type: cell-based
Parameters: endogenous in cells; host or cells: HEK 293T
Conditions: SILAC ratio DMSO relative to UNC0638, pull-down with 3xMBT; UNC0638 in heavy SILAC media; all values in log base 2

Molecule | Relative to UNC0638 UNC Heavy
B1 | 0.49 log base 2
B2 | 0.22 log base 2
B3 | 0.13 log base 2

Same assay, conditions: SILAC ratio DMSO relative to UNC0638, pull-down with 3xMBT; UNC0638 in light SILAC media; all values in log base 2

Molecule | Relative to UNC0638 UNC Light
B1 | −0.29 log base 2
B2 | −0.06 log base 2
B3 | 0.03 log base 2

Same assay, conditions: average of UNC Light and UNC Heavy experiments; all values in log base 2

Molecule | Relative to UNC0638 Average
B1 | 0.10 log base 2
B2 | 0.08 log base 2
B3 | 0.08 log base 2

Tested on: 3×MBT domain of L3MBTL1
Experiment: Triple SILAC pull-down, 3xMBT/3xMBTD355N ratio (cytoplasmic, nuclear and chromatin fractions of 293T cells);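 further: proteins quantified with MaxQuant, requiring at least two unique peptides and quantification in both label directions, normalized to the mean of proteins from a digested loading control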
Type: binding, human
Conditions: SILAC ratio 3xMBT vs 3xMBTD355N pull-down, 293T cells; experiment with UNC0638 in heavy SILAC media; all values in log base 2

Molecule | 3xMBT/D355N UNC Heavy
B1 | 2.47 log base 2
B2 | 2.82 log base 2
B3 | 1.41 log base 2

Same assay, conditions: SILAC ratio 3xMBT vs 3xMBTD355N pull-down, 293T cells; experiment with UNC0638 in light SILAC media; all values in log base 2

Molecule | 3xMBT/D355N UNC Light
B1 | 1.93 log base 2
B2 | 1.83 log base 2
B3 | 2.75 log base 2
